Measured values published in paper PMC10200060, “Inhibition of DAMP actions in the tumoral microenvironment using lactoferrin-glycyrrhizin conjugate for glioblastoma therapy” (Biomaterials Research, 2023).

T1: human recombinant HMGB1 protein (Homo sapiens, UniProt P09429)
T1 construct: purchased Abcam
T1 sequence (P09429 1-215): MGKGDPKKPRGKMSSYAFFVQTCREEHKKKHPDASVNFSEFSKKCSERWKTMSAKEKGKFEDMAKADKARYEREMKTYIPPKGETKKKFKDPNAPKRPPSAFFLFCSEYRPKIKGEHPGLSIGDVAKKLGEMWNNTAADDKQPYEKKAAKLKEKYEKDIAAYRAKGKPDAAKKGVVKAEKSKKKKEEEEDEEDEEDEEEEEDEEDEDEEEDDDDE

B1: Lf-GL (1:4): lactoferrin-glycyrrhizin conjugate, ratio 1:4 (conjugate, UniProt P24627 20-708, looked up)
Lactotransferrin: APRKNVRWCTISQPEWFKCRRWQWRMKKLGAPSITCVRRAFALECIRAIAEKKADAVTLDGGMVFEAGRDPYKLRPVAAEIYGTKESPQTHYYAVAVVKKGSNFQLDQLQGRKSCHTGLGRSAGWIIPMGILRPYLSWTESLEPLQGAVAKFFSASCVPCIDRQAYPNLCQLCKGEGENQCACSSREPYFGYSGAFKCLQDGAGDVAFVKETTVFENLPEKADRDQYELLCLNNSRAPVDAFKECHLAQVPSHAVVARSVDGKEDLIWKLLSKAQEKFGKNKSRSFQLFGSPPGQRDLLFKDSALGFLRIPSKVDSALYLGSRYLTTLKNLRETAEEVKARYTRVVWCAVGPEEQKKCQQWSQQSGQNVTCATASTTDDCIVLVLKGEADALNLDGGYIYTAGKCGLVPVLAENRKSSKHSSLDCVLRPTEGYLAVAVVKKANEGLTWNSLKDKKSCHTAVDRTAGWNIPMGLIVNQTGSCAFDEFFSQSCAPGADPKSRLCALCAGDDQGLDKCVPNSKEKYYGYTGAFRCLAEDVGDVAFVKNDTVWENTNGESTADWAKNLNREDFRLLCLDGTRKPVTEAQSCHLAVAPNHAVVSRSDRAAHVKQVLLHQQALFGKNGKNCPDKFCLFKSETKNLLFNDNTECLAKLGGRPTYEEYLGTEYVTAIANLKKCSTSPLLEACAFLTR
modifications: glycyrrhizin conjugate 1:4
B2: Lf-GL (1:15): lactoferrin-glycyrrhizin conjugate, ratio 1:15 (conjugate, UniProt P24627 20-708, looked up)
Lactotransferrin: B1 Lactotransferrin
modifications: glycyrrhizin conjugate 1:15

Key:
[1] = test system: U87MG spheroid; test: GBM spheroid growth inhibition; assay type: cell-based, human; settings: GL equivalent 50 µM, day 6 (control 294%)
Experimental: Fig. S8. GBM spheroid growth inhibition of Lf-GL. To form U87MG spheroid, cells were seeded at density of 1X10^5 cells in concave mold (StemFIT 3D; MICROFIT, Korea). After spheroids were formed, they were transferred to 24-well plate coated with 2% agarose gel. The constructed spheroids were treated with conditioned medium at 2 days interval after a washing step with PBS. (a) Morphology of U87MG spheroid treated with Lf-GL of GL equivalent concentration of 50 µM on day 0, 2, 4 and 6, respectively. Scale bar: 200 µm (b) GBM spheroids time-related volume after treated with Lf-GL of GL equivalent concentration of 50 µM. Data were expressed as mean ± S.E.M (n=9). **P <0.01 versus Control.

[2] = molecular target: T1, human recombinant HMGB1 protein; test: SPR binding affinity against HMGB1; settings: SPR, HMGB1 immobilized; for Ka, association rate constant / Kd, dissociation rate constant: PBS pH 7.4, room temperature
Experimental: To confirm the binding affinity of Lf-GL to HMGB1, Surface Plasmon Resonance (SPR) was conducted at WoojungBSC (Korea). The Reichert SR7500DC system (Reichert technologies, NA, USA) and Scrubber2 software (Biologic software, FRA) were used, and a CMDH chip (Cat #: 13,206,066, Reichert technologies) was used for immobilization of the human recombinant HMGB1 protein (Abcam). HMGB1 protein was used as a ligand, and the analytes were HMGB1 antibody (Abcam), GL, Lf and Lf-GL conjugate. The immobilization buffer was S.A. (10 × 10^–3 M, pH 4.5), and the running buffer was PBS (pH 7.4). The flow rate of the analyte was 30 μL min^−1. The association and dissociation time were 3 min each, and measurements were conducted at room temperature. Results are expressed in response units (RU) over time.
Fig. S5. Binding affinity against HMGB1. Surface Plasmon Resonance (SPR) was conducted at WoojungBSC (Korea). The Reichert SR7500DC system (Reichert technologies, NA, USA) and Scrubber2 software(Biologic software, FRA) were used and the CMDH chip (Cat #: 13206066, Reichert technologies) was used for immobilization of the human recombinant HMGB1 protein (Abcam). HMGB1 protein was used as ligand and analytes were HMGB1 antibody (Abcam), GL, Lf and Lf-GL conjugate. Immobilization buffer was 10 mM S.A. (pH 4.5) and running buffer was 1× PBS. The flow rate of the analyte was 30 μL min^-1. The association and dissociation time were 3 min each and conducted at room temperature. Results are expressed in response units (RU) over time.

Molecule	Spheroid volume increase at day 6 compared to day 0 [1] [%]	KD, equilibrium dissociation constant (KD = Kd Ka^−1) [2] [nM]	Ka, association rate constant [2]	Kd, dissociation rate constant [2]
B1	185	595 ± 5	(2.66±0.02)·10^3 M^-1s^-1	0.001584 ± 8e-06 s⁻¹
B2	179	32.3 ± 0.2	(2.99±0.02)·10^4 M^-1s^-1	(9.65±0.04)·10^-4 M^-1s^-1
